These results are taken from article PMC12246617, “Cryo-EM structures reveal the PP2A–B55α and Eya3 interaction that can be disrupted by a peptide inhibitor” (The Journal of Biological Chemistry, 2025).

Test [1] addresses B55i peptide (computationally engineered inhibitory peptide of B55). Briefly: fluorescence polarisation; His-B55 serially diluted in 50 mM Tris pH 8, 100 mM NaCl, 1 mM DTT, incubated with 3 nM FITC-B55i at room temperature for 10 min.
Test [2] deals with T1, His-hB55 (human PP2A regulatory subunit B55α), P63151.
T1 chain: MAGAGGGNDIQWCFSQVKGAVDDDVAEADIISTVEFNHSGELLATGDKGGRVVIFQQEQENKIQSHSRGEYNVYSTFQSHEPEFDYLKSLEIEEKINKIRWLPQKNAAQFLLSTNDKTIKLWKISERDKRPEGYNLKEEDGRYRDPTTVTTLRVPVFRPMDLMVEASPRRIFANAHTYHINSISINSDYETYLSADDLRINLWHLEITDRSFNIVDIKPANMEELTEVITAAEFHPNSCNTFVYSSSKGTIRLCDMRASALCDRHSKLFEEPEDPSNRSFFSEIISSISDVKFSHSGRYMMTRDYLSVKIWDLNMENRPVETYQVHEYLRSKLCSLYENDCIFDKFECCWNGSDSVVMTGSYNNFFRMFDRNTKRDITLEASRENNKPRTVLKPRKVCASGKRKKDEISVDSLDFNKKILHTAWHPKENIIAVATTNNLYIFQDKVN
Briefly: MST. As to conditions: chain shown with the change;.

B1: His-hB55 (human PP2A regulatory subunit B55α) (natural protein)
chain: MAGAGGGNDIQWCFSQVKGAVDDDVAEADIISTVEFNHSGELLATGDKGGRVVIFQQEQENKIQSHSRGEYNVYSTFQSHEPEFDYLKSLEIEEKINKIRWLPQKNAAQFLLSTNDKTIKLWKISERDKRPEGYNLKEEDGRYRDPTTVTTLRVPVFRPMDLMVEASPRRIFANAHTYHINSISINSDYETYLSADDLRINLWHLEITDRSFNIVDIKPANMEELTEVITAAEFHPNSCNTFVYSSSKGTIRLCDMRASALCDRHSKLFEEPEDPSNRSFFSEIISSISDVKFSHSGRYMMTRDYLSVKIWDLNMENRPVETYQVHEYLRSKLCSLYENDCIFDKFECCWNGSDSVVMTGSYNNFFRMFDRNTKRDITLEASRENNKPRTVLKPRKVCASGKRKKDEISVDSLDFNKKILHTAWHPKENIIAVATTNNLYIFQDKVN
With B1, in test [1], the Kd was found to be 0.0673 µM.

B2: mouse Eya3 (mEya3), wild type, P97480 Y77A (protein)
chain: MEEEQDLPEQPVKKAKMQEPREQTLSQVNNPDASDEKPETSSLASNLSMSEEIMTCTDYIPRSSNDYTSQMYSAKPAAHILSVPVSETTYPGQTQYQTLQQSQPYAVYPQATQTYGLPPFASSTNASLIPTSSAIANIPAAAVASISNQDYPTYTILGQNQYQACYPSSSFGVTGQTNSDAETTTLAATTYQTEKPSAMVPAPATQRLPSDSSASPPLSQTTPNKDADDQARKNMTVKNRGKRKADASSSQDSELERVFLWDLDETIIIFHSLLTGSYAQKYGKDPTVVIGSGLTMEEMIFEVADTHLFFNDLEECDQVHVEDVASDDNGQDLSNYSFSTDGFSGSGGSGSHGSSVGVQGGVDWMRKLAFRYRKVREIYDKHKSNVGGLLSPQRKEALQRLRAEIEVLTDSWLGTALKSLLLIQSRKNCANVLITTTQLVPALAKVLLYGLGEIFPIENIYSATKIGKESCFERIVSRFGKKVTYVVIGDGRDEEIAAKQHNMPFWRITNHGDLVSLHQALELDFL
Take B2: the Kd in test [2] (parent: 1.04 µM) is 4.87 µM.

B3: mouse Eya3 (mEya3), wild type, P97480 K75A (protein)
chain: MEEEQDLPEQPVKKAKMQEPREQTLSQVNNPDASDEKPETSSLASNLSMSEEIMTCTDYIPRSSNDYTSQMYSAAPYAHILSVPVSETTYPGQTQYQTLQQSQPYAVYPQATQTYGLPPFASSTNASLIPTSSAIANIPAAAVASISNQDYPTYTILGQNQYQACYPSSSFGVTGQTNSDAETTTLAATTYQTEKPSAMVPAPATQRLPSDSSASPPLSQTTPNKDADDQARKNMTVKNRGKRKADASSSQDSELERVFLWDLDETIIIFHSLLTGSYAQKYGKDPTVVIGSGLTMEEMIFEVADTHLFFNDLEECDQVHVEDVASDDNGQDLSNYSFSTDGFSGSGGSGSHGSSVGVQGGVDWMRKLAFRYRKVREIYDKHKSNVGGLLSPQRKEALQRLRAEIEVLTDSWLGTALKSLLLIQSRKNCANVLITTTQLVPALAKVLLYGLGEIFPIENIYSATKIGKESCFERIVSRFGKKVTYVVIGDGRDEEIAAKQHNMPFWRITNHGDLVSLHQALELDFL
B3: in test [2] (parent: 1.04 µM), the Kd was 4.24 µM.

B4: mouse Eya3 (mEya3), wild type, P97480 H79A (protein)
chain: MEEEQDLPEQPVKKAKMQEPREQTLSQVNNPDASDEKPETSSLASNLSMSEEIMTCTDYIPRSSNDYTSQMYSAKPYAAILSVPVSETTYPGQTQYQTLQQSQPYAVYPQATQTYGLPPFASSTNASLIPTSSAIANIPAAAVASISNQDYPTYTILGQNQYQACYPSSSFGVTGQTNSDAETTTLAATTYQTEKPSAMVPAPATQRLPSDSSASPPLSQTTPNKDADDQARKNMTVKNRGKRKADASSSQDSELERVFLWDLDETIIIFHSLLTGSYAQKYGKDPTVVIGSGLTMEEMIFEVADTHLFFNDLEECDQVHVEDVASDDNGQDLSNYSFSTDGFSGSGGSGSHGSSVGVQGGVDWMRKLAFRYRKVREIYDKHKSNVGGLLSPQRKEALQRLRAEIEVLTDSWLGTALKSLLLIQSRKNCANVLITTTQLVPALAKVLLYGLGEIFPIENIYSATKIGKESCFERIVSRFGKKVTYVVIGDGRDEEIAAKQHNMPFWRITNHGDLVSLHQALELDFL
As for B4, the Kd in test [2] (parent: 1.04) worked out at 9.16 µM.
